Laboratory results: PMC3260238, “The Werner Syndrome Protein Is Distinguished from the Bloom Syndrome Protein by Its Capacity to Tightly Bind Diverse DNA Structures”

What was measured:
WRN K577M = WRN K577M (human, UniProt Q14191 1-1432, K577M); experiment: EMSA; similar to wild type; EMSA: 40 mM Tris-HCl pH 8.0, 4 mM MgCl2, 5 mM DTT, 1 mM ATPgS, 0.1 ug BSA in 10 ul, 4 C, 20 min; +10 mM KCl for quadruplexes; 4% gel, 0.5x Tris-glycine pH 8.3; conditions: protein: recombinant; tags: His6; label: 5'-32P; G4 dimer of 2 strands, described as antiparallel
WRN [1] = target: T1, WRN (human, UniProt Q14191 1-1432); experiment: EMSA; ATPgS, 4 mM Mg2+, 10 mM KCl; EMSA: 40 mM Tris-HCl pH 8.0, 4 mM MgCl2, 5 mM DTT, 1 mM ATPgS, 0.1 ug BSA in 10 ul, 4 C, 20 min; +10 mM KCl for quadruplexes; 4% gel, 0.5x Tris-glycine pH 8.3; conditions: protein: recombinant, tags: His6, label: 5'-32P
WRN [2] = target: T1, WRN; experiment: EMSA; ATPgS, 4 mM Mg2+; EMSA: 40 mM Tris-HCl pH 8.0, 4 mM MgCl2, 5 mM DTT, 1 mM ATPgS, 0.1 ug BSA in 10 ul, 4 C, 20 min; +10 mM KCl for quadruplexes; 4% gel, 0.5x Tris-glycine pH 8.3; conditions: protein: recombinant, tags: His6
BLM = BLM (UniProt P54132 1-1417); experiment: EMSA; ATPgS, 4 mM Mg2+, 10 mM KCl; EMSA: 40 mM Tris-HCl pH 8.0, 4 mM MgCl2, 5 mM DTT, 1 mM ATPgS, 0.1 ug BSA in 10 ul, 4 C, 20 min; +10 mM KCl for quadruplexes; 4% gel, 0.5x Tris-glycine pH 8.3; conditions: protein: recombinant; tags: C-terminal FLAG; label: 5'-32P; G4 tetramer of 4 parallel strands
WRN [3] = target: T1, WRN; experiment: EMSA; ATPgS, 10 mM KCl; tight, similar to G'2 TeR43; EMSA: 40 mM Tris-HCl pH 8.0, 4 mM MgCl2, 5 mM DTT, 1 mM ATPgS, 0.1 ug BSA in 10 ul, 4 C, 20 min; +10 mM KCl for quadruplexes; 4% gel, 0.5x Tris-glycine pH 8.3; conditions: protein: recombinant; tags: His6; label: 5'-32P; G4 dimer of 2 strands, described as antiparallel

T1 sequence (Q14191 whole entry): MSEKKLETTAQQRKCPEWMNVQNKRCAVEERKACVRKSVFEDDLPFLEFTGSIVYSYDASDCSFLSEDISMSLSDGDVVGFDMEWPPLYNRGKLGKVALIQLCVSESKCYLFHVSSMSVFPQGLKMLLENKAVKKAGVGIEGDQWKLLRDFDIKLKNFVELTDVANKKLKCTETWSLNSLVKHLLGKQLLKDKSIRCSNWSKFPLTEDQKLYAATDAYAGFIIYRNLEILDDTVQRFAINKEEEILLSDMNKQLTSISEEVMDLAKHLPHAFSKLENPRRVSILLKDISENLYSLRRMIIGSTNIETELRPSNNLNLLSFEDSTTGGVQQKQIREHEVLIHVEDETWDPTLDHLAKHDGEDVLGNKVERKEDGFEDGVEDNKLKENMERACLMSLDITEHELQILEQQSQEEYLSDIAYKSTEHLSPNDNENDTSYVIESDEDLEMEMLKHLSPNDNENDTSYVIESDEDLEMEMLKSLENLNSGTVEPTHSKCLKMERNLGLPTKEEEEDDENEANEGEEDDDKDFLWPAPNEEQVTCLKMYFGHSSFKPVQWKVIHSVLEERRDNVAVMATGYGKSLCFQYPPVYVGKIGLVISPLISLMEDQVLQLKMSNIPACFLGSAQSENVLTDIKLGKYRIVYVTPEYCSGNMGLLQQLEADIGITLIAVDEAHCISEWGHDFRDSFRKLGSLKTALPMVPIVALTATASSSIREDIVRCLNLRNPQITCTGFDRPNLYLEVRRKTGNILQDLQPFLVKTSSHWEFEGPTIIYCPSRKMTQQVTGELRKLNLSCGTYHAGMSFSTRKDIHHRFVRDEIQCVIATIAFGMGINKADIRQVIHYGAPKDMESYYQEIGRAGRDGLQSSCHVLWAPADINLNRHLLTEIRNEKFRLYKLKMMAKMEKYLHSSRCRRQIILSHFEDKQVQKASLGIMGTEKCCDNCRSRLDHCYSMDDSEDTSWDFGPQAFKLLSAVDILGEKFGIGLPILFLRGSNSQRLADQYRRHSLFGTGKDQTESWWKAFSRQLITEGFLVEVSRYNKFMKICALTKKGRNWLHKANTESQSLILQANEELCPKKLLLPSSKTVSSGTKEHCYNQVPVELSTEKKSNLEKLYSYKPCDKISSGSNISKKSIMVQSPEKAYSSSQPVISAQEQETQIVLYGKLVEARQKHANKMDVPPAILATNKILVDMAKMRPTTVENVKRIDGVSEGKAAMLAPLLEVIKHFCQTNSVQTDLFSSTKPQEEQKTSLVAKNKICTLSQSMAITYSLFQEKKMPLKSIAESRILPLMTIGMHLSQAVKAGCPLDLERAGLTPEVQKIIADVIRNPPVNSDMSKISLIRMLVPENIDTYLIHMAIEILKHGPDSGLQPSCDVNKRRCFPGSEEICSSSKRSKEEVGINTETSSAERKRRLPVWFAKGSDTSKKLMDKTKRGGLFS
Chain of WRN K577M (Q14191 whole entry K577M): as the sequence (Q14191 whole entry) above, with K577M counted along it
Chain of BLM (P54132 whole entry): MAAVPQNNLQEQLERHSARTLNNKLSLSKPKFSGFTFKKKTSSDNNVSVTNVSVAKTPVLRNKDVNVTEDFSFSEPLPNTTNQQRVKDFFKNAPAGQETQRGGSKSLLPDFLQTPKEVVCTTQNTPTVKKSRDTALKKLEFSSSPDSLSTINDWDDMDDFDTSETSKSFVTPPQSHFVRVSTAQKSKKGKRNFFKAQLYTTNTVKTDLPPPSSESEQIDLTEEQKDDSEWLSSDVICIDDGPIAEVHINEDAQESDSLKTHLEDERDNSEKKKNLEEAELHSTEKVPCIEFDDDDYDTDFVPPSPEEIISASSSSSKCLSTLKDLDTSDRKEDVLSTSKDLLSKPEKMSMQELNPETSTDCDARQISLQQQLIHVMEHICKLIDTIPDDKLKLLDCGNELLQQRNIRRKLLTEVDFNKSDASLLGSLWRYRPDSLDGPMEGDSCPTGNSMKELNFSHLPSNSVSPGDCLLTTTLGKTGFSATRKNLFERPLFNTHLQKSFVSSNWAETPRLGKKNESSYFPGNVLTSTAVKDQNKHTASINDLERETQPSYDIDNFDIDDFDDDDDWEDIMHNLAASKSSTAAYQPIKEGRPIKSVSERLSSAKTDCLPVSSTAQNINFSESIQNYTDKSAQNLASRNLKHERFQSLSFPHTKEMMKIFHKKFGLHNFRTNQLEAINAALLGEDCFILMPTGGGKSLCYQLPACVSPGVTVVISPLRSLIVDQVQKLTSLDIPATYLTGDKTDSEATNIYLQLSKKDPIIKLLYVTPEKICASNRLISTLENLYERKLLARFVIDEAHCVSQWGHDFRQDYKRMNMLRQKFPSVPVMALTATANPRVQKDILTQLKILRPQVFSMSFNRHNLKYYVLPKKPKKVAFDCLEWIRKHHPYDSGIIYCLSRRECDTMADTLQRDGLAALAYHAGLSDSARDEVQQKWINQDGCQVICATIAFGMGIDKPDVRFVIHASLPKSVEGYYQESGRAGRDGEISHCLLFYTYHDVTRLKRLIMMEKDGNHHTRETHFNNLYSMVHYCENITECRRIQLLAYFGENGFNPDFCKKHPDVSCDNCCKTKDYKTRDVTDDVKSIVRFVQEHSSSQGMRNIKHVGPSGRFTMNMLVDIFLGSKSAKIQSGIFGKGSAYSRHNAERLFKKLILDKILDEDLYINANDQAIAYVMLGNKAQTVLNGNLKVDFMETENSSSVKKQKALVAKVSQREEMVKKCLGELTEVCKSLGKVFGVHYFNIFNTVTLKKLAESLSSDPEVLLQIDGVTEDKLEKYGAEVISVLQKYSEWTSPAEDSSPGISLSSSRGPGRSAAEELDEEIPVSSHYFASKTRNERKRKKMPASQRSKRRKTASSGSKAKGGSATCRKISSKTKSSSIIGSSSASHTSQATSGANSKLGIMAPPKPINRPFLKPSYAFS

Question: What does the source list for GGTTAGGGTTAGGGTTAGGGTTAGGGTTAGTTAGGGTTAGGGT (structured_DNA) [G'2 TeR43 quadruplex]?
Answer: binding result (WRN K577M): binds; Kd (WRN [1]; G4 dimer of 2 strands, described as antiparallel): 0.26 ± 0.08 nM

B1: 20/46 partial duplex (dsDNA)
DNA 1: CGCTAGCAATATTCTGCAGC
DNA 2: GCGCGGAAGCTTGGCTGCAGAATATTGCTAGCGGGAAATCGGCGCG
modifications: 3'-terminal inverted dC on the 20-mer
Question: For B1, which Kd (WRN [2]; label: 5'-32P on strand 1, 20 bp, 13 nt 5' and 13 nt 3' tails on strand 2) is on record?
Answer: 2.3 ± 1.3 nM

B2: Bubble DNA (dsDNA)
DNA 1: GCGCGGAAGCTTGGCTGCAGAATATTGCTAGCGGGAATTCGGCGCG
DNA 2: CGCGCCGAATTCCCGCTAGTGGCGCCTTGCAGCCAAGCTTCCGCGC
Question: With B2 as the binder, how does the Kd (WRN [2]; label: 5'-32P on strand 1, blunt, 8 nt non-complementary central bubble) read?
Answer: 24.7 ± 3.5 nM

Question: How did the Kd (WRN [1]; G4 tetramer of 4 parallel strands) turn out when TGGACCAGACCTAGCAGCTATGGGGGAGCTGGGGAAGGTGGGAATGTGA (structured_DNA) [G4 IgG quadruplex] was run?
Answer: 3.4 ± 0.4 nM

Question: What about the Kd (BLM) of the same binder?
Answer: 7 ± 2.9 nM

B3: dsTeR63 partial duplex (dsDNA)
DNA 1: GGTTAGGGTTAGGGTTAGGGTTAGGGTTAGTTAGGGTTAGGGTTAGGGTTAGGGGCGATTGAT
DNA 2: ATCAATCGCCCCTAACCC
Question: B3 was tested. Which Kd (WRN [2]; label: 5'-32P on strand 2, 18 bp, 45 nt 5' tail on strand 1) did it give?
Answer: 7.6 ± 2.9 nM

B4: G'2 TeR63 quadruplex (structured_DNA)
DNA: GGTTAGGGTTAGGGTTAGGGTTAGGGTTAGTTAGGGTTAGGGTTAGGGTTAGGGGCGATTGAT
Question: Does B4 bind (WRN [3])?
Answer: binds

B5: Splayed arm DNA (dsDNA)
DNA 1: CGCGCCGAATTCCCGCTAGCAATATTCTGCAGCCAAGCTTCCGCGC
DNA 2: GGCGAACTGCCATTCGCACTTACACTGCTAGCGGGAATTCGGCGCG
Question: With B5 as the binder, how does the Kd (WRN [2]; label: 5'-32P on strand 1, fork) read?
Answer: 6.2 ± 1.3 nM
